Experiment [1] addresses T1, HIV HR1 polypeptide (Human immunodeficiency virus type 1 group M subtype B, UniProt P04578).
T1 construct: made in house; host or cells: chemical peptide synthesis (no expression host)
The experiment is described as follows: biochemical. The experiment is classed as binding. The conditions noted are these: for kon: read-out: ka. The method, then:
All surface plasmon resonance measurements were performed on a BIAcore 3000 instrument (GE Healthcare Biosciences AB, Sweden) at 25° C. Chemically prepared HIV HR1 peptide (heptad repeat 1; Biotin-[…] Q-NH2 (SEQ ID NO: 87)) was immobilized on a CM5 biosensor chip according to the manufacturer instructions (GE Healthcare Biosciences AB, Sweden). The fusion polypeptide was diluted to a concentration of 25 nM and injected over 5 minutes at a flow rate of 50 μl/min. Thereafter the protein complex obtained from different combined fractions was diluted into the same buffer to concentrations of 250 nM and 80 nM and injected over 5 minutes at a flow rate of 50 μl/min. Afterwards the sensor chip was regenerated for 1 minute with PBS, pH 8.0, 0.005% (v/v) Tween 20. Data analysis was performed with the BIAevaluation software (BIAcore, Sweden) (see FIG. 4).

The subject of experiment [2] is HIV cell-cell-membrane fusion. The experiment in a line: cell-cell-fusion-assay (CCF-assay), antiviral activity. The experiment is classed as cell-based. From the text:
The amino acid sequence of fusion polypeptide FP-1 is SEQ ID NO: 76, the amino acid sequence of fusion polypeptide FP-2 is SEQ ID NO: 77, and the amino acid sequence of fusion polypeptide FP-3 is SEQ ID NO: 78. In the fusion polypeptides FP-1 to FP-3 the same serpin-finger polypeptide is conjugated to different HIV fusion inhibitor polypeptides. The fusion polypeptide FP-3 is expressed better in E. coli than FP-2 and in turn FP-2 is expressed better than the fusion polypeptide FP-1. The same sequence of the fusion polypeptides is obtained for the binding to target HIV HR-1 polypeptide (FP-3>FP-2>FP-1) in a BIAcore assay. The same sequence has also been found for the anti-viral activity in a cell-cell-fusion-assay (CCF-assay).

Where [3] appears, read: BIAcore 3000, 25° C., HR1 peptide immobilized on CM5 chip.

Like-named read-outs stand apart in the source and are kept apart here.

By Kd is commonly meant the constant that tells how readily two partners part at equilibrium. Higher therefore signals lower affinity. As usually defined, the IC50 is the concentration needed to halve the response being measured. Higher therefore signals weaker potency in that assay.

T1 sequence (P04578 540-590): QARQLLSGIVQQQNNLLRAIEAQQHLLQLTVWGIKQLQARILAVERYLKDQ

Take `CC[C@H](C)[C@H](NC(=O)[C@H](CC(C)C)NC(=O)[C@H](CO)NC(=O)[C@H](Cc1c[nH]cn1)NC(=O)[C@@H](NC(=O)[C@H](CC(C)C)NC(=O)[C@H](CO)NC(=O)[C@@H](NC(=O)[C@H](Cc1ccc(O)cc1)NC(=O)[C@H](CC(N)=O)NC(=O)[C@H](CC(N)=O)NC(=O)[C@@H](NC(=O)[C@H](CCC(=O)O)NC(=O)[C@H](CCCNC(=N)N)NC(=O)[C@H](CC(=O)O)NC(=O)[C@H](Cc1c[nH]c2ccccc12)NC(=O)[C@H](CCC(=O)O)NC(=O)[C@H](CCSC)NC(=O)[C@H](Cc1c[nH]c2ccccc12)NC(=O)[C@@H](NC(=O)[C@@H](N)CCSC)[C@@H](C)O)[C@@H](C)CC)[C@@H](C)O)[C@@H](C)CC)C(=O)N[C@@H](CCC(=O)O)C(=O)N[C@@H](CCC(=O)O)C(=O)N[C@@H](CO)C(=O)N[C@@H](CCC(N)=O)C(=O)N[C@@H](CC(N)=O)C(=O)N[C@@H](CCC(N)=O)C(=O)N[C@@H](CCC(N)=O)C(=O)N[C@@H](CCC(=O)O)C(=O)N[C@@H](CCCCN)C(=O)N[C@@H](CC(N)=O)C(=O)N[C@@H](CCC(=O)O)C(=O)N[C@@H](CCC(N)=O)C(=O)N[C@@H](CCC(=O)O)C(=O)N[C@@H](CC(C)C)C(=O)N[C@@H](CC(C)C)C(=O)O` [T-651, reference compound]: the kon in experiment [1] (setting [3]) amounted to 1.65e+06 M⁻¹ s⁻¹.

Molecule `CC[C@H](C)[C@H](NC(=O)[C@H](CCC(N)=O)NC(=O)[C@H](C)NC(=O)[C@H](CCC(N)=O)NC(=O)[C@H](CCC(=O)O)NC(=O)[C@H](CC(C)C)NC(=O)[C@H](CC(C)C)NC(=O)[C@H](C)NC(=O)[C@@H](NC(=O)[C@@H](NC(=O)[C@H](CCCCN)NC(=O)[C@H](CCC(N)=O)NC(=O)[C@H](CCC(=O)O)NC(=O)[C@H](Cc1c[nH]c2ccccc12)NC(=O)[C@H](CCC(=O)O)NC(=O)[C@H](CCC(N)=O)NC(=O)[C@H](Cc1c[nH]c2ccccc12)NC(C)=O)[C@@H](C)CC)[C@@H](C)O)C(=O)N[C@@H](CCC(N)=O)C(=O)N[C@@H](CCC(N)=O)C(=O)N[C@@H](CCC(=O)O)C(=O)N[C@@H](CCCCN)C(=O)N[C@@H](CC(N)=O)C(=O)N[C@@H](CCC(=O)O)C(=O)N[C@@H](Cc1ccc(O)cc1)C(=O)N[C@@H](CCC(=O)O)C(=O)N[C@@H](CC(C)C)C(=O)N[C@@H](CCC(N)=O)C(=O)N[C@@H](CCCCN)C(=O)N[C@@H](CC(C)C)C(=O)N[C@@H](CC(=O)O)C(=O)N[C@@H](CCCCN)C(=O)N[C@@H](Cc1c[nH]c2ccccc12)C(=O)N[C@@H](C)C(=O)N[C@@H](CO)C(=O)N[C@@H](CC(C)C)C(=O)N[C@@H](Cc1c[nH]c2ccccc12)C(=O)N[C@@H](CCC(=O)O)C(=O)N[C@@H](Cc1c[nH]c2ccccc12)C(=O)N[C@@H](Cc1ccccc1)C(N)=O` [T-1249, reference compound] registered a kd in experiment [1] (setting [3]) of 0.00127 s⁻¹.

Turning to `CC[C@H](C)[C@H](NC(=O)[C@H](C)NC(=O)[C@H](CCCNC(=N)N)NC(=O)[C@H](CC(=O)O)NC(=O)[C@H](Cc1c[nH]c2ccccc12)NC(=O)[C@H](C)NC(=O)[C@H](CCC(=O)O)NC(=O)[C@H](Cc1c[nH]c2ccccc12)NC(=O)[C@@H](NC(=O)[C@@H](N)[C@@H](C)O)[C@@H](C)O)C(=O)N[C@@H](C)C(=O)N[C@@H](CCC(=O)O)C(=O)N[C@@H](Cc1ccc(O)cc1)C(=O)N[C@@H](C)C(=O)N[C@@H](C)C(=O)N[C@@H](CCCNC(=N)N)C(=O)N[C@H](C(=O)N[C@@H](CCC(=O)O)C(=O)N[C@@H](C)C(=O)N[C@@H](CC(C)C)C(=O)N[C@H](C(=O)N[C@@H](CCCNC(=N)N)C(=O)N[C@@H](C)C(=O)N[C@@H](C)C(=O)N[C@@H](CCC(N)=O)C(=O)N[C@@H](CCC(=O)O)C(=O)N[C@@H](CCC(N)=O)C(=O)N[C@@H](CCC(N)=O)C(=O)N[C@@H](CCC(=O)O)C(=O)N[C@@H](CCCCN)C(=O)N[C@@H](CC(N)=O)C(=O)N[C@@H](CCC(=O)O)C(=O)N[C@@H](C)C(=O)N[C@@H](C)C(=O)N[C@@H](CC(C)C)C(=O)N[C@@H](CCCNC(=N)N)C(=O)N[C@@H](CCC(=O)O)C(=O)N[C@@H](CC(C)C)C(=O)O)[C@@H](C)CC)[C@@H](C)CC` [T-2635, reference compound], the kon in experiment [1] is 1.11e+06 M⁻¹ s⁻¹.

For the molecule “FP-2: SEQ ID NO: 77=GR+SEQ ID NO: 82+SEQ ID NO: 75+SEQ ID NO: 13; serpin-finger, linker, T-651 (GRGTEAAGAMFLEAIPMSTTWMEWDKEINNYTSLIHSLIEESQNQQEKNEQELL)”, in experiment [1], the KA turned out to be 1.08e+10 M⁻¹, the Kd was determined as 0.0924 nM, the ka came to 1.29e+06 M⁻¹ s⁻¹ and the kd worked out at 0.000119 s⁻¹. In experiment [2], the half-maximal inhibitory concentration (IC50) stood at 330 nM.

B1: FP-3: SEQ ID NO: 78=GR+SEQ ID NO: 83+SEQ ID NO: 50+SEQ ID NO: 40; serpin-finger, linker, T-2635 (protein)
chain: GKSGTEAAGAMFLEAIPMSGGGGSGGGGSGGGGTTWEAWDRAIAEYAARIEALIRAAQEQQERNEAALREL
With B1, in experiment [1], the KA was found to be 3.22e+10 M⁻¹, binding was put at a Kd of 0.031 nM, the ka is 991000 M⁻¹ s⁻¹ and the kd was determined as 3.07e-05 s⁻¹. This molecule also showed a 50% inhibitory concentration (IC50) in experiment [2] of 200 nM.

B2: FP-1: SEQ ID NO: 76=GR+SEQ ID NO: 05+SEQ ID NO: 52+SEQ ID NO: 37; serpin-finger, linker, T-1249 (protein)
chain: GRTEAAGAMFLEAIPMSGGGGSGGGGSGGGGTWQEWEQKITALLEQAQIQQEKNEYELQKLDKWASLWEWF
In experiment [1], B2 had a KA of 6.29e+08 M⁻¹, a Kd of 1.59 nM, a ka of 227000 M⁻¹ s⁻¹ and a kd of 0.000361 s⁻¹. In experiment [2], this molecule showed an IC50 of 700 nM.

These data come from patent publication US9403896B2, “Serpin-finger fusion polypeptide” (Hoffmann-La Roche Inc., priority 2010, dated 2016).
